Test results: patent US20240327495A1 (OXFORD UNIVERSITY INNOVATION, published 2024)

Molecular target: C. difficile toxin B glucosyltransferase domain (GTD, residues 2-543) (Clostridium difficile, UniProt P18177 2-543)
Sequence (P18177 2-543 limits assumed): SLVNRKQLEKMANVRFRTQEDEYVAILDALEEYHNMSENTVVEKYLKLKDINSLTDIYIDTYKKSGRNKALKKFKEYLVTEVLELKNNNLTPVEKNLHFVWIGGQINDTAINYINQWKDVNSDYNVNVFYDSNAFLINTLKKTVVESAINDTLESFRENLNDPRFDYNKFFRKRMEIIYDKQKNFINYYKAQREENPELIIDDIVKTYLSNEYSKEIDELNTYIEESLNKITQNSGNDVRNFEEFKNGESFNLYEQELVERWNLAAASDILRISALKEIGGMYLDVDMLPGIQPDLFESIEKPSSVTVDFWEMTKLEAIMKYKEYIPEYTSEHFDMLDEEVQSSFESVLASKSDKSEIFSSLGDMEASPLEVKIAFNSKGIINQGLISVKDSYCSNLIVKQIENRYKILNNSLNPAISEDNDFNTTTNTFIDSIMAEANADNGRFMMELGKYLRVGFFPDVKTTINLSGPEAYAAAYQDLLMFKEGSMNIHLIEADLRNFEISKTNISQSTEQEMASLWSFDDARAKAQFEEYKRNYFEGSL

B1: GT01 R63A (designed binder, not shown: small tags and cut ends)
chain: DFVLDNEGNPLENGGTYYILSDYGRQLFGGIRAAPTGNERCPLTVVQSLFRNHRDKGIGTIISSPYAIRFIAEGHPLSLKFDSFAVIMLCVGIPTEWSVVEDLPEGPAVKIGENKDAMDGWFRLERVSDDEFNNYKLVFCPQQAEDDKCGDIGISIDHDDGTRRLVVSKNKPLVVQFQKLDKESL
- EC50 (read off the curve): ~7 nM
